Results on three substances are retold here after PMC6975058.

In general, stoichiometry N refers to the number of molecules, sites or subunits per partner or assembly.

For test [1], the target named is trastuzumab heavy chain produced alone in HEK293 (in vivo folded HC). The experiment in a line: denaturing, non-reducing SDS-PAGE; MiniProtean TGX Stain-free gels 4-20%, band densitometry; shows only disulfide-linked species.
Test [2] concerns the target trastuzumab light chain produced alone in HEK293 (in vivo folded LC). The description is as above.
For test [3] the target is unchanged. Kind of test: SEC; SEC-HPLC under native conditions, Zenix-C SEC-300, mobile phase PBS, 0.35 ml/min, absorbance at 214 nm; the isolated chain alone. (In gel filtration, larger molecules generally elute earlier.)
The target of test [4] is trastuzumab light chain, refolded in vitro by slow dialysis. Described as above.

Substance “trastuzumab heavy chain produced alone in HEK293 (in vivo folded HC) (domain or fragment)” came in with a stoichiometry N in test [1] of 2.

For “trastuzumab light chain produced alone in HEK293 (in vivo folded LC) (domain or fragment)”, the percent of LC in the 42 KDa band under denaturing conditions in test [2] turned out to be 55%. The stoichiometry N in test [3] was 2.

In test [4], “trastuzumab light chain, refolded in vitro by slow dialysis (domain or fragment)” registered a stoichiometry N of 2.
